Results on 4 molecules are retold here after paper PMC4948871, “The Molecular Mechanism of Ethylene-Mediated Root Hair Development Induced by Phosphate Starvation”.

This data set deals with T1, GST-EIN3(141-352) (Arabidopsis thaliana, UniProt O24606 141-352).
T1 sequence: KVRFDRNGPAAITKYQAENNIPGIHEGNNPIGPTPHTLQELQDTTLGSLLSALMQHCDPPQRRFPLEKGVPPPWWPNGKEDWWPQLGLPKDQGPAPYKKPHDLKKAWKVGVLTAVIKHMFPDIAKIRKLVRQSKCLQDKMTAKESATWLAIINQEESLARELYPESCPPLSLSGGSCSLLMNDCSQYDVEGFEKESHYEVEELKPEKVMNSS
The experiment in a line: EMSA; competed by 500x unlabelled probe; 25 mM HEPES-KOH pH 7.5, 100 mM KCl, 0.1 mM EDTA, 10% glycerol, 1 mM DTT, 1 ug poly(dI-dC), 0.1 ug protein in 20 uL, room temperature 30 min; 5.5% PAGE in 0.5x TBE. To be noted: protein: recombinant; tags: GST (pGEX-6p-1); chain copies: 2; label: biotin; blunt. In general terms: A gel shift assay detects complexes by their altered migration in electrophoresis.

B1: EXT14-P2 (dsDNA)
DNA 1: TGCATATGAATTAACATGCATATGAATTAACATGCATATGAATTAACATGCATATGAATTAACA
DNA 2: TGTTAATTCATATGCATGTTAATTCATATGCATGTTAATTCATATGCATGTTAATTCATATGCA
B1: the binding result is listed as “binds”.

B2: RHS15-P2 (dsDNA)
DNA 1: GACAAATGAATTCGGAGACAAATGAATTCGGAGACAAATGAATTCGGAGACAAATGAATTCGGA
DNA 2: TCCGAATTCATTTGTCTCCGAATTCATTTGTCTCCGAATTCATTTGTCTCCGAATTCATTTGTC
Consider B2, for which the binding result was “binds”.

B3: RHS19-P1 (dsDNA)
DNA 1: TCTGCACGAATGTCACTCTGCACGAATGTCACTCTGCACGAATGTCACTCTGCACGAATGTCAC
DNA 2: GTGACATTCGTGCAGAGTGACATTCGTGCAGAGTGACATTCGTGCAGAGTGACATTCGTGCAGA
For the molecule B3, the binding result is reported as “binds”.

B4: PRP1-P4 (dsDNA)
DNA 1: AACAGATGAACGACATAACAGATGAACGACATAACAGATGAACGACATAACAGATGAACGACAT
DNA 2: ATGTCGTTCATCTGTTATGTCGTTCATCTGTTATGTCGTTCATCTGTTATGTCGTTCATCTGTT
For B4, the binding result was “binds”.
